Experimental data as given in paper PMC4980704.

Target: VEGF165 (human, UniProt P15692-4 27-191)
Experiment: MST

## TGTGGGGGTGGACGGGCCGGGTAGA (structured_DNA) [V7t1 (3'-Cy3)]
  Kd: 75.9 ± 13 nM
